Consider 14 molecules from patent US20220251562, “Anti-CD3 Aptamers for Use in Cell Targeting and Labeling” (Ixaka France, published 2022).

Data set [1] addresses T1, CD3 epsilon/gamma heterodimer (Homo sapiens, UniProt P07766;P09693 P07766:23-126,P09693:23-116). The data set can be described thus: SPR; steady state; kinetic 0.2 pM (Table 8). Conditions: tags: C-terminal human IgG1 Fc fusion, AcroBiosystems; chain copies: heterodimer 1:1 (inferred); label: biotin; G4 predicted. As to the method: (§1) Binding affinity measurements with the most interesting anti-CD3 aptamers derived from the core sequence were performed using a BIAcore T200 instrument (GE Healthcare) as already described in Example 4. To analyze interactions between aptamers and CD3 proteins, biotinylated aptamers were immobilized at a lower density than in Example 4 (100-500 RU) on Series S Sensor chips SA (GE Healthcare) according to manufacturer's instructions (GE Healthcare). Mouse and Cynomolgus CD3 ε/δ were purchased from AcroBiosystems. For human proteins, the highest concentration used was 100 nM and 1 μM for mouse and cynomolgus antigens. Other concentrations were obtained by 3-fold dilutions.
Table 9 below provides a summary of KD values obtained from surface plasmon resonance measurements performed with human CD3 ε/γ and mouse and cynomolgus CD3 ε/δ. […] In these conditions, 3′-3′ deoxy-thymidine-modified versions of the latest four aptamers performed equally well. All these sequenced-optimized aptamers were able to bind the murine and cynomolgus CD3 ε/δ isoforms confirming the cross-specificity of the CD3 aptamers already observed in Examples 3 and 5.

The target of data set [2] is T2, CD3 epsilon/delta heterodimer (Homo sapiens, UniProt P07766;P04234 P07766:23-126,P04234:22-105). The data set is described as follows: SPR; kinetic. The conditions noted are these: tags: C-terminal human IgG1 Fc fusion, AcroBiosystems; chain copies: heterodimer 1:1 (inferred); label: biotin; G4 predicted. As to the method:
as §1
(§2) Table 8 below provides a summary of KD values obtained from surface plasmon resonance measurements. […] Variants of the core sequence identified in cell binding assays (CELTIC_core_12, CELTIC_core_24, CELTIC_core_29, CELTIC_core_40 and CELTIC_core_42) were all confirmed to have better affinities than the unmodified aptamer with human CD3 ε/γ. As already observed in Example 4, the affinities were in general slightly lower with CD3 ε/δ which is a consequence of the SELEX strategy that included more rounds on the CD3 ε/γ isoform. None of these sequences did bind to the Fc region of human IgG1.

In data set [3] the target is T3, IgG1 Fc (counter target) (Homo sapiens, UniProt P01857-1 P01857-1:100-330). The data set is described as follows: SPR; NA. The conditions noted are these: tags: AcroBiosystems; chain copies: 2; label: biotin; G4 predicted. As to the method: as §1, §2
For data set [4], the target named is T2, CD3 epsilon/delta heterodimer. The data set is described as follows: SPR; steady state; kinetic 3.7 nM (Table 6). Conditions: tags: C-terminal human IgG1 Fc fusion, AcroBiosystems; chain copies: heterodimer 1:1 (inferred); label: 5'-biotin-TEG. As to the method: (§3) Binding affinity measurements were performed using a BIAcore T200 instrument (GE Healthcare). To analyze interactions between aptamers and CD3 proteins, 1000 Resonance Units of biotinylated aptamers were immobilized on Series S Sensor chips SA (GE Healthcare) according to manufacturer's instructions (GE Healthcare). SELEX buffer was used as the running buffer. The interactions were measured in the “Single Kinetics Cycle” mode at a flow rate of 30 μl/min and by injecting different concentrations of human CD3 ε/γ, CD3 ε/δ, IgG1 Fc and mouse CD3 ε/δ (Sino Biological). The highest protein concentration used was 100 nM. Other concentrations were obtained by 3-fold dilution. All kinetic data of the interaction were evaluated using the BIAcore T200 evaluation software. Table 3 below provides a summary of KD values obtained from surface plasmon resonance measurements.
In general terms: Surface plasmon resonance follows binding to a sensor surface in real time, without labels.

Data set [5] deals with T1, CD3 epsilon/gamma heterodimer. The data set can be described thus: SPR; steady state; kinetic 3.8 nM (Table 6). Conditions: tags: C-terminal human IgG1 Fc fusion, AcroBiosystems; chain copies: heterodimer 1:1 (inferred); label: 5'-biotin-TEG. As to the method:
as §3

The target in data set [6] is T3, IgG1 Fc (counter target). The data set can be described thus: SPR; no interaction observed. Conditions: tags: AcroBiosystems; chain copies: 2; label: 5'-biotin-TEG. As to the method: as §3
For data set [7], the target named is T2, CD3 epsilon/delta heterodimer. The data set can be described thus: SPR; same value in Table 3. Conditions: tags: C-terminal human IgG1 Fc fusion, AcroBiosystems; chain copies: heterodimer 1:1 (inferred); label: 5'-biotin-TEG. As to the method: as §3
(§4) Further, it was observed that compared to the aptamer CELTIC_1 (CD3-1 in Table 1), CELTIC_1s (CD3-1s) bound to the CD3 proteins more strongly. Table 4 below provides a summary of KD values obtained from another set of surface plasmon resonance measurements. It includes KD values of the first five aptamers with and without flanking regions.

Data set [8] has as its target T1, CD3 epsilon/gamma heterodimer. The data set can be described thus: SPR; same value in Table 3. The conditions noted are these: tags: C-terminal human IgG1 Fc fusion, AcroBiosystems; chain copies: heterodimer 1:1 (inferred); label: 5'-biotin-TEG. As to the method: as §3, §4
The target in data set [9] is T2, CD3 epsilon/delta heterodimer. The data set can be described thus: SPR; NA. Conditions: tags: C-terminal human IgG1 Fc fusion, AcroBiosystems; chain copies: heterodimer 1:1 (inferred); label: 5'-biotin-TEG. As to the method: as §3, §4
In data set [10] the target is T1, CD3 epsilon/gamma heterodimer. The data set is described as follows: SPR; NA. Conditions: tags: C-terminal human IgG1 Fc fusion, AcroBiosystems; chain copies: heterodimer 1:1 (inferred); label: 5'-biotin-TEG. As to the method:
as §3, §4

In data set [11] the target is T3, IgG1 Fc (counter target). The data set can be described thus: SPR; no interaction observed; aptamer also NA for CD3. The conditions noted are these: tags: AcroBiosystems; chain copies: 2; label: 5'-biotin-TEG. As to the method:
as §3, §4

Data set [12] addresses T2, CD3 epsilon/delta heterodimer. The data set is described as follows: SPR; steady state; kinetic 8.2 nM (Table 6), 900 pM (Table 8). Conditions: tags: C-terminal human IgG1 Fc fusion, AcroBiosystems; chain copies: heterodimer 1:1 (inferred); label: 5'-biotin-TEG. As to the method:
as §3

In data set [13] the target is T1, CD3 epsilon/gamma heterodimer. The data set is described as follows: SPR; steady state; kinetic 9.5 pM (Table 6), 304 pM (Table 8); 99 nM steady state (Table 9). The conditions noted are these: tags: C-terminal human IgG1 Fc fusion, AcroBiosystems; chain copies: heterodimer 1:1 (inferred); label: 5'-biotin-TEG.
Data set [14] addresses T2, CD3 epsilon/delta heterodimer. The data set can be described thus: SPR; steady state; kinetic 23.3 nM (Table 6). Conditions: tags: C-terminal human IgG1 Fc fusion, AcroBiosystems; chain copies: heterodimer 1:1 (inferred); label: 5'-biotin-TEG. As to the method: as §3
For data set [15], the target named is T1, CD3 epsilon/gamma heterodimer. The data set is described as follows: SPR; steady state; kinetic fit suboptimal. Conditions: tags: C-terminal human IgG1 Fc fusion, AcroBiosystems; chain copies: heterodimer 1:1 (inferred); label: 5'-biotin-TEG. As to the method:
as §3

In data set [16] the target is T2, CD3 epsilon/delta heterodimer. The data set is described as follows: SPR; steady state; kinetic 41.1 nM (Table 6). Conditions: tags: C-terminal human IgG1 Fc fusion, AcroBiosystems; chain copies: heterodimer 1:1 (inferred); label: 5'-biotin-TEG. As to the method:
as §3

Data set [17] shares this target. The data set can be described thus: SPR; steady state; kinetic 2.7 nM (Table 6). Conditions: tags: C-terminal human IgG1 Fc fusion, AcroBiosystems; chain copies: heterodimer 1:1 (inferred); label: 5'-biotin-TEG. As to the method:
as §3

In data set [18] the target is T1, CD3 epsilon/gamma heterodimer. The data set can be described thus: SPR; steady state; kinetic 2.3 nM (Table 6). The conditions noted are these: tags: C-terminal human IgG1 Fc fusion, AcroBiosystems; chain copies: heterodimer 1:1 (inferred); label: 5'-biotin-TEG. As to the method: as §3
Data set [19] has as its target T2, CD3 epsilon/delta heterodimer. The data set can be described thus: SPR; steady state; kinetic fit suboptimal. Conditions: tags: C-terminal human IgG1 Fc fusion, AcroBiosystems; chain copies: heterodimer 1:1 (inferred); label: 5'-biotin-TEG. As to the method: as §3
Data set [20] deals with T1, CD3 epsilon/gamma heterodimer. The data set is described as follows: SPR; steady state; kinetic 4.1 nM (Table 6). The conditions noted are these: tags: C-terminal human IgG1 Fc fusion, AcroBiosystems; chain copies: heterodimer 1:1 (inferred); label: 5'-biotin-TEG. As to the method: as §3
In data set [21] the target is T2, CD3 epsilon/delta heterodimer. The data set is described as follows: SPR; steady state; kinetic 3.4 nM (Table 6). The conditions noted are these: tags: C-terminal human IgG1 Fc fusion, AcroBiosystems; chain copies: heterodimer 1:1 (inferred); label: 5'-biotin-TEG. As to the method:
as §3

Data set [22] shares this target. The data set can be described thus: SPR; steady state; kinetic 3.2 nM (Table 6). The conditions noted are these: tags: C-terminal human IgG1 Fc fusion, AcroBiosystems; chain copies: heterodimer 1:1 (inferred); label: 5'-biotin-TEG. As to the method: as §3
The target in data set [23] is T1, CD3 epsilon/gamma heterodimer. The data set is described as follows: SPR; steady state; kinetic 3.9 nM (Table 6). Conditions: tags: C-terminal human IgG1 Fc fusion, AcroBiosystems; chain copies: heterodimer 1:1 (inferred); label: 5'-biotin-TEG. As to the method: as §3
Data set [24] has the same target. The data set can be described thus: SPR; steady state; 43.6 nM (Table 3); kinetic 2.8 nM (Table 6). Conditions: tags: C-terminal human IgG1 Fc fusion, AcroBiosystems; chain copies: heterodimer 1:1 (inferred); label: 5'-biotin-TEG. As to the method:
as §3

In data set [25] the target is T2, CD3 epsilon/delta heterodimer. The data set is described as follows: SPR; steady state; 62.2 nM (Table 3); kinetic 3.4 nM (Table 6). Conditions: tags: C-terminal human IgG1 Fc fusion, AcroBiosystems; chain copies: heterodimer 1:1 (inferred); label: 5'-biotin-TEG. As to the method:
as §3

T1 sequence (P07766 23-126, chain 1 of 2): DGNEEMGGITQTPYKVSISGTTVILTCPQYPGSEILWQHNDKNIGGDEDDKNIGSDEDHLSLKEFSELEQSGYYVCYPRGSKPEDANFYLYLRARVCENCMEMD
T1 sequence (P09693 23-116, chain 2 of 2): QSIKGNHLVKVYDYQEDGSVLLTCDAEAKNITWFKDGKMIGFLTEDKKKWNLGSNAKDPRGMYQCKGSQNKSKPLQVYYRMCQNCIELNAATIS
T2 sequence (P07766 23-126, stated change not applied, chain 1 of 2): as the sequence (P07766 23-126, chain 1 of 2) above
T2 sequence (P04234 22-105, stated change not applied, chain 2 of 2): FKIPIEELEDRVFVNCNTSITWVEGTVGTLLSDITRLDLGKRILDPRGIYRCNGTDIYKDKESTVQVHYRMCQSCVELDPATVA

B1: CELTIC_core_40 (ssDNA)
DNA: GGGTTTGGCATCGGGTCTGGC
modifications: 5'-HEG
Consider B1, for which the values for the Kd in data set [1] and in data set [2] were 129 nM and 0.0052 nM, respectively. In addition, the binding result in data set [3] was “no binding”.

B2: CELTIC_9s (ssDNA)
DNA: GCATCGAAATGGGGTTGGCACCGGGCCTGGCGAATTGGAT
Regarding B2, the results for the dissociation constant Kd in data set [4] and in data set [5] were 60.5 nM and 47.3 nM, respectively. For the same molecule, the binding result in data set [6] is “no binding”.

B3: CELTIC_3 (ssDNA)
DNA: TAGGGAAGAGAAGGACATATGATGCGTAAGGGTTTGGCAGCGGGCCTGGCGGAACGCGTGTATTTGACTAGTACATGACCACTTGA
With B3, the Kd (in general, the constant that tells how readily two partners part at equilibrium) was 86.5 nM in data set [7] and 65.4 nM in [8].

B4: CELTIC_1 (ssDNA)
DNA: TAGGGAAGAGAAGGACATATGATCCGGGTGGGGGTTTGGCACCGGGCCTGGCGCAGGGATTCGTTGACTAGTACATGACCACTTGA
Regarding B4, the binding result in data set [9], in data set [10] and in data set [11] was “no binding” each time.

B5: CELTIC_2 (ssDNA)
DNA: TAGGGAAGAGAAGGACATATGATGAGGGGTTTGGCATCGGGCCTGGCGCCATTCAAGCTATGCTTGACTAGTACATGACCACTTGA
For the molecule B5, the binding result in [9], in data set [10] and in data set [11] was “no binding” each time.

B6: CELTIC_19s (ssDNA)
DNA: TACCGCGGGGATTGGCTCCGGGCCTGGCGTCGTAATCTGA
With B6, in data set [6], the binding result is “no binding”. Further, the values for the equilibrium dissociation constant (Kd) in data set [12] and in data set [13] were 150 nM and 104 nM, respectively.

B7: CELTIC_21s (ssDNA)
DNA: GGTCGGGTGCTACTGAGCGATTGGCTTTCCGGACTGGGGA
With B7, the Kd in data set [14] was 405 nM; in data set [15], 155 nM. In addition, in data set [6], the binding result is listed as “no binding”.

B8: CELTIC_3s (ssDNA)
DNA: GCGTAAGGGTTTGGCAGCGGGCCTGGCGGAACGCGTGTAT
For B8, the Kd in data set [15] stood at 156 nM; in data set [16], 409 nM. For the same molecule, the binding result in [6] is reported as “no binding”.

B9: CELTIC_22s (printed CELTIC_CD3_22) (ssDNA)
DNA: CGACCACAGGGGTTTGGCTTCGGGACTGGCGGTGGGCACT
Regarding B9, the figures for the dissociation constant Kd in data set [17] and in data set [18] were 164 nM and 162 nM, respectively.

B10: CELTIC_6s (ssDNA)
DNA: AAGGGATTGGCGTCGGGCCTGGCGTAAGGAGGCTATGCTC
As for B10, the Kd came to 168 nM in [19] and 287 nM in data set [15]. Moreover, the binding result in [6] is listed as “no binding”.

B11: CELTIC_4s (ssDNA)
DNA: GGAGTGGAGTATTCCGGGTTTGGCATCGGGCCTGGCGAAG
B11: the Kd worked out at 117 nM in [20] and 144 nM in data set [21]. Besides, the binding result in [6] was “no binding”.

B12: CELTIC_11s (ssDNA)
DNA: GATGGAGGGTTTGGCGGTGGGCCTGGCAAGTTATCTCATA
For the molecule B12, in data set [6], the binding result is listed as “no binding”. In addition, the dissociation constant Kd was 138 nM in data set [22] and 94 nM in data set [23].

B13: CELTIC_5s (ssDNA)
DNA: CGGCAGGGGTTTGGCTCCGGGTCTGGCGAACTGGCTGAGA
For B13, the dissociation constant (Kd) in [19] was 120 nM; in data set [15], 182 nM. In addition, in data set [6], the binding result is on record as “no binding”.

B14: CELTIC_21 (ssDNA)
DNA: TAGGGAAGAGAAGGACATATGATGGTCGGGTGCTACTGAGCGATTGGCTTTCCGGACTGGGGATTGACTAGTACATGACCACTTGA
Regarding B14, the dissociation constant (Kd) is 56.4 nM in data set [24] and 49.8 nM in data set [25].
